In PMC3642088, “Phosphorylation of CDK9 at Ser175 Enhances HIV Transcription and Is a Marker of Activated P-TEFb in CD4^+ T Lymphocytes” (PLoS Pathogens, 2013):
Blank lines part the entries; values can stand above or below the molecule they belong to.

Assays:
BRD4 = BRD4 (UniProt O60885); assay: anti-FLAG co-IP, Western blot; conditions: reference: wild type
[1] = molecular target: Cyclin T1 (CycT1, hCycT1) (UniProt O60563); assay: anti-FLAG co-IP, Western blot; conditions: reference: wild type
FLAG-HEXIM1 = FLAG-HEXIM1 (UniProt O94992); assay: co-IP; anti-FLAG IP of FLAG-HEXIM1 from whole cell extracts of 2D10 cells, unstimulated or PMA for 1 h with or without U0126, FLAG peptide elution, Western blot
[2] = molecular target: FLAG-tagged CDK9 (293T cells) (human) (UniProt P50750); assay: co-IP; anti-FLAG IP from 293T cells stably expressing FLAG-tagged CDK9, with or without transiently transfected HA-tagged Tat, with or without PMA for 1 hr or 2 hrs, Western blot
FLAG-CDK9 S175D (human) [3] = molecular target: FLAG-CDK9 S175D (human) (UniProt P50750)
FLAG-CDK9 S175A (human) = FLAG-CDK9 S175A (human) (UniProt P50750); assay: co-IP; anti-FLAG IP of FLAG-CDK9 wildtype or mutants from latently infected Jurkat T-cells induced for 16 hr with TNF-α to express Tat, Western blot for BRD4, Tat and CycT1; levels normalised to total CDK9, three experiments
FLAG-CDK9 S175D (human) [4] = molecular target: FLAG-CDK9 S175D (human) (UniProt P50750); assay: as above
Tat = assay: anti-FLAG co-IP, Western blot; conditions: reference: wild type; sites S175
FLAG-CDK9 T186A = molecular target: T1, FLAG-CDK9 T186A (human, UniProt P50750 1-372, T186A); assay: co-IP; anti-FLAG M2 agarose IP of FLAG-CDK9 wildtype or mutants from whole cell extracts (lysis buffer A) of Jurkat 2D10 cells, FLAG peptide elution, Western blot; densitometry normalised to total immunoprecipitated CDK9, five experiments; conditions: partners not purified
T1 construct: also called T186A CDK9

FLAG-CDK9 S175A = molecular target: T2, FLAG-CDK9 S175A (human, UniProt P50750 1-372, S175A); assay: as above; conditions: partners not purified
T2 construct: also called S175A CDK9; Ser175Ala

FLAG-CDK9 S175D = molecular target: T3, FLAG-CDK9 S175D (human, UniProt P50750 1-372, S175D); assay: as above; conditions: partners not purified
T3 construct: also called S175D CDK9; Ser175Asp

FLAG-CDK9 T186D = molecular target: T4, FLAG-CDK9 T186D (human, UniProt P50750 1-372, T186D); assay: as above; conditions: partners not purified
T4 construct: also called T186D CDK9

Molecule: CDK9 (FLAG-CDK9 isoform 1) (from UniProt P50750) T186D
percent of reference (BRD4; sites T186): 61.6% | percent of reference ([1]; sites T186): 49.4%

percent reduction of association after PMA for 1 h (FLAG-HEXIM1): 30%
Molecule: endogenous CDK9 (from UniProt P50750 1-372) (enzyme)

Molecule: HA-tagged Tat (from UniProt P04608 1-86) (natural protein)
percent increase of Tat associated with CDK9 after 1 hr of PMA [2]: 12% | percent of HEXIM1 released from FLAG-CDK9 on expression of HA-Tat [2]: 71% | percent of LARP7 released from FLAG-CDK9 on expression of HA-Tat [2]: 82%

Molecule: CDK9 (FLAG-CDK9 isoform 1) (from UniProt P50750) S175D
percent of reference ([1]; sites S175): 78.9%

Molecule: HIV Tat H13L (from UniProt P04608 1-86) (natural protein)
CDK9 kinase activity of the affinity purified FLAG-CDK9 complex in the in vitro RNAP II CTD kinase assay, against wildtype CDK9 (FLAG-CDK9 S175D (human) [3]): 159% | CDK9 kinase activity of the affinity purified FLAG-CDK9 complex in the in vitro autophosphorylation assay, against wildtype CDK9 (FLAG-CDK9 S175D (human) [3]): 117% | percent of wildtype association (FLAG-CDK9 S175A (human)): 59.2% | percent of wildtype association (FLAG-CDK9 S175D (human) [4]): 109%

Molecule: CDK9 (FLAG-CDK9 isoform 1) (from UniProt P50750) S175A
percent of reference (BRD4; sites S175): 1.9% | percent of reference (Tat): 59.2% | percent of reference ([1]; sites S175): 98.9%

percent reduction of co-precipitation against wildtype CDK9 (FLAG-CDK9 T186A): > 99% | percent co-immunoprecipitated against wildtype CDK9 (FLAG-CDK9 S175A): > 90% | percent co-immunoprecipitated against wildtype CDK9 (FLAG-CDK9 S175D): 67.5% | percent reduction of co-precipitation against wildtype CDK9 (FLAG-CDK9 T186D): > 99%
B1: HEXIM1 (natural protein, human (endogenous in Jurkat), UniProt O94992 1-359, looked up)
chain: MAEPFLSEYQHQPQTSNCTGAAAVQEELNPERPPGAEERVPEEDSRWQSRAFPQLGGRPGPEGEGSLESQPPPLQTQACPESSCLREGEKGQNGDDSSAGGDFPPPAEVEPTPEAELLAQPCHDSEASKLGAPAAGGEEEWGQQQRQLGKKKHRRRPSKKKRHWKPYYKLTWEEKKKFDEKQSLRASRIRAEMFAKGQPVAPYNTTQFLMDDHDQEEPDLKTGLYSKRAAAKSDDTSDDDFMEEGGEEDGGSDGMGGDGSEFLQRDFSETYERYHTESLQNMSKQELIKEYLELEKCLSRMEDENNRLRLESKRLGGDDARVRELELELDRLRAENLQLLTENELHRQQERAPLSKFGD
notes: source: endogenous, Jurkat T-cell whole cell extract

percent reduction of co-precipitation against wildtype CDK9 (FLAG-CDK9 T186A): > 99% | percent co-immunoprecipitated against wildtype CDK9 (FLAG-CDK9 S175A): > 90% | percent co-immunoprecipitated against wildtype CDK9 (FLAG-CDK9 S175D): 77.2% | percent reduction of co-precipitation against wildtype CDK9 (FLAG-CDK9 T186D): > 99%
B2: LARP7 (natural protein, human (endogenous in Jurkat), UniProt Q4G0J3 1-582, looked up)
chain: METESGNQEKVMEEESTEKKKEVEKKKRSRVKQVLADIAKQVDFWFGDANLHKDRFLREQIEKSRDGYVDISLLVSFNKMKKLTTDGKLIARALRSSAVVELDLEGTRIRRKKPLGERPKDEDERTVYVELLPKNVNHSWIERVFGKCGNVVYISIPHYKSTGDPKGFAFVEFETKEQAAKAIEFLNNPPEEAPRKPGIFPKTVKNKPIPALRVVEEKKKKKKKKGRMKKEDNIQAKEENMDTSNTSISKMKRSRPTSEGSDIESTEPQKQCSKKKKKRDRVEASSLPEVRTGKRKRSSSEDAESLAPRSKVKKIIQKDIIKEASEASKENRDIEISTEEEKDTGDLKDSSLLKTKRKHKKKHKERHKMGEEVIPLRVLSKSEWMDLKKEYLALQKASMASLKKTISQIKSESEMETDSGVPQNTGMKNEKTANREECRTQEKVNATGPQFVSGVIVKIISTEPLPGRKQVRDTLAAISEVLYVDLLEGDTECHARFKTPEDAQAVINAYTEINKKHCWKLEILSGDHEQRYWQKILVDRQAKLNQPREKKRGTEKLITKAEKIRLAKTQQASKHIRFSEYD
notes: as for B1
